{"source": "paper doi:10.1101/2020.07.06.189977", "about": "(bioRxiv, 2020)", "proteins": {"B1": {"name": "ERα-L372S/L536S double-mutant ligand-binding domain (LBD, amino acid residues 298–554) (domain or fragment, UniProt P03372 298-554, looked up)", "chain": "IKRSKKNSLALSLTADQMVSALLDAEPPILYSEYDPTRPFSEASMMGLLTNLADRELVHMINWAKRVPGFVDLTSHDQVHLLECAWLEILMIGLVWRSMEHPGKLLFAPNLLLDRNQGKCVEGMVEIFDMLLATSSRFRMMNLQGEEFVCLKSIILLNSGVYTFLSSTLKSLEEKDHIHRVLDKITDTLIHLMAKAGLTLQQQHQRLAQLLLILSHIRHMSNKGMEHLYSMKCKNVVPSYDLLLEMLDAHRLHAPTS"}}, "molecular_target": "the molecule itself", "experiment": "crystal structure", "data": [{"protein": "B1", "values": [{"measurement": "binding result", "value": "binds"}]}]}
